Molecular target: T1, AtVOZ2m (Arabidopsis thaliana, UniProt Q9SLB9 1-450, C249A;H253A)
T1 sequence: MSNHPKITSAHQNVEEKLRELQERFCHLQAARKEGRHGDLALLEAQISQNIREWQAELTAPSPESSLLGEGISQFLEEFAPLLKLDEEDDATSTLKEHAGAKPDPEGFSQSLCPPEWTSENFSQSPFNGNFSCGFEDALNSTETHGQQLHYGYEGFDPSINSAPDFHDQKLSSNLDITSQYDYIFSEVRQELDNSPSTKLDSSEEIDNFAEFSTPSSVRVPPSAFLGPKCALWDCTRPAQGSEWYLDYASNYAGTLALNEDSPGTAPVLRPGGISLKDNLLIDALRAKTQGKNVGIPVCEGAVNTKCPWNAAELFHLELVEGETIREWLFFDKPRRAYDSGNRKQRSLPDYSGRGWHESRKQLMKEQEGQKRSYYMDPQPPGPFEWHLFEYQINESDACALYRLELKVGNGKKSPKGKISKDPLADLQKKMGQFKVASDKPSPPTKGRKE
Assay: EMSA

B1: pMOS3 (dsDNA)
DNA 1: GACGTCCGGCGCAGCGTTTATCAGACGCTGGGATTAAAACA
DNA 2: TGTTTTAATCCCAGCGTCTGATAAACGCTGCGCCGGACGTC
Does B1 bind?
Result: no binding

From PMC3625871
